Measured values as given in publication PMC10273338, “HspB8 interacts with BAG3 in a “native‐like” conformation forming a complex that displays chaperone‐like activity” (Protein Science : A Publication of the Protein Society, 2023).

B1: HspB8 (natural protein, UniProt Q9UJY1 1-196, looked up)
chain: MADGQMPFSCHYPSRLRRDPFRDSPLSSRLLDDGFGMDPFPDDLTASWPDWALPRLSSAWPGTLRSGMVPRGPTATARFGVPAEGRTPPPFPGEPWKVCVNVHSFKPEELMVKTKDGYVEVSGKHEEKQQEGGIVSKNFTKKIQLPAEVDPVTVFASLSPEGLLIIEAPQVPPYSTFGESSFNNELPQDSQEVTCT
notes: HspB8, small heat shock protein; gene in pGEX-6P-1, provided by Serena Carra; source: E. coli BL21-CodonPlus(DE3)-RIL, purified (Glutathione Sepharose, PreScission cleavage on the resin, Superose 12 SEC); not shown: GST, N-terminal, cleaved
B2: HspB8-BAG3 complex (complex)
chain 1: MADGQMPFSCHYPSRLRRDPFRDSPLSSRLLDDGFGMDPFPDDLTASWPDWALPRLSSAWPGTLRSGMVPRGPTATARFGVPAEGRTPPPFPGEPWKVCVNVHSFKPEELMVKTKDGYVEVSGKHEEKQQEGGIVSKNFTKKIQLPAEVDPVTVFASLSPEGLLIIEAPQVPPYSTFGESSFNNELPQDSQEVTCT
chain 2: not shown
B3: Josephin domain of ataxin-3 (domain or fragment, UniProt P54252 1-180, looked up)
chain: MESIFHEKQEGSLCAQHCLNNLLQGEYFSPVELSSIAHQLDEEERMRMAEGGVTSEDYRTFLQQPSGNMDDSGFFSIQVISNALKVWGLELILFNSPEYQRLRIDPINERSFICNYKEHWFTVRKLGKQWFNLNSLLTGPELISDTYLALFLAQLQQEGYSIFVVKGDLPDCEADQLLQM
notes: cloned in pET21-a; likely residues 1-182 of human ataxin-3 (surmised). pET21-a may add a C-terminal His6 tag; also called JD; source: E. coli BL21 Tuner (DE3) pLacI, purified as previously described (Bonanomi et al., 2015)

What was measured:
[1] = biological target: B3; assay: cell-based or functional assay
[2] = biological target: T1, BAG3 (Bcl-2 associated athanogene protein 3) (human, UniProt O95817 1-575); assay: SPR; BIACORE X; HspB8 amine-coupled to a CM5 chip (7400 RU); running buffer 10 mM HEPES pH 7.4, 150 mM NaCl, 3 mM EDTA, 0.005% P20; 10 uL/min; Langmuir 1:1 fit; settings: both partners purified
T1 construct: BAG3, human; no removal of the tag is described; source: E. coli M15 (pREP4), purified (HisPur Cobalt resin, Superose 12 SEC)

[3] = biological target: T1, BAG3 (Bcl-2 associated athanogene …); assay: SPR; BIACORE X; BAG3 amine-coupled to a CM5 chip (3400 RU); running buffer 10 mM HEPES pH 7.4, 150 mM NaCl, 3 mM EDTA, 0.005% P20; 10 uL/min; Langmuir 1:1 fit; settings: both partners purified
[4] = biological target: T1, BAG3 (Bcl-2 associated athanogene …); assay: SPR; BIACORE X100; JD amine-coupled to a CM5 chip (3000 RU); single cycle kinetics at 25°C, 10 uL/min, 10 mM HEPES pH 7.4, 150 mM NaCl, 3 mM EDTA, 0.005% P20; Langmuir 1:1 fit, complex assumed to bind JD 1:1; settings: both partners purified
HspB8 = biological target: B1; assay: as above; settings: both partners purified
HspB8-BAG3 complex = biological target: B2; assay: as above; settings: both partners purified
Sequence of HspB8-BAG3 complex (O95817 whole entry, one chain of several): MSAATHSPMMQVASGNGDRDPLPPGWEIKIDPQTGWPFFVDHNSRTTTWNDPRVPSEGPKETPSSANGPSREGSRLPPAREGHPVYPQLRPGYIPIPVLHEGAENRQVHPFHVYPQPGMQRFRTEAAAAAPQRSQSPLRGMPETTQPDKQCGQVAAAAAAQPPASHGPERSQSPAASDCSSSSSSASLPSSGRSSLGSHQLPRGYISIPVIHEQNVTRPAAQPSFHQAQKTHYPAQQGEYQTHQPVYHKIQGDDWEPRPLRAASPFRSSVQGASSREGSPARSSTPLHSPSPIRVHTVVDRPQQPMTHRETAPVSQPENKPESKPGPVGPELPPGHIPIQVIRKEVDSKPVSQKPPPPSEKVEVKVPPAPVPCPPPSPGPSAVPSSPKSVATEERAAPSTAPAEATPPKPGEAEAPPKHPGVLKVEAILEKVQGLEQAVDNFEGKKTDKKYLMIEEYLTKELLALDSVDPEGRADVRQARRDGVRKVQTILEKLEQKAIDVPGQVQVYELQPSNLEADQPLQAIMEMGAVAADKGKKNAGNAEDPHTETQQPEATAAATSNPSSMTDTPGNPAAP

T1 sequence (O95817 whole entry): as the sequence (O95817 whole entry, one chain of several) above

Q: What does the source list for B1?
A: inhibition of JD aggregation (ThT fluorescence, 10 uM JD at 37°C with HspB8 at different molar ratios; 20% at JD:HspB8 1:0.093, maximum at 4:1) [1]: 35%; Ka [2]: 4.2e+08 M⁻¹; Kd [2]: 2.4 nM; koff [2]: 0.00022 s⁻¹; kon [2]: 93000 M⁻¹ s⁻¹; Ka [3]: 2.2e+08 M⁻¹; Kd [3]: 4.5 nM; koff [3]: 0.00056 s⁻¹; kon [3]: 130000 M⁻¹ s⁻¹

Q: Which “inhibition of JD aggregation (ThT fluorescence, 10 uM JD at 37°C with the HspB8-BAG3 complex at different ratios; maximum at JD:complex 1:0.5)” value [1] does the source give for B2 here?
A: 40%

Q: What does the source list for B3?
A: Ka [4]: 190000 M⁻¹; Kd [4]: 5400 nM; koff [4]: 0.0014 s⁻¹; kon [4]: 260 M⁻¹ s⁻¹; Ka (HspB8): 120000 M⁻¹; Kd (HspB8): 8100 nM; koff (HspB8): 0.0006 s⁻¹; kon (HspB8): 74 M⁻¹ s⁻¹; Ka (HspB8-BAG3 complex): 1.4e+07 M⁻¹; Kd (HspB8-BAG3 complex): 73 nM; koff (HspB8-BAG3 complex): 0.00024 s⁻¹; kon (HspB8-BAG3 complex): 3300 M⁻¹ s⁻¹
